Assay results: a protein production outcome set (Wang et al. 2014)

Assay: label from the status in PepcDB records

Row | Sequence | protein production
1 | MKIDKLFIKSIILTFLSMNLLFMILIMLGDLFVNLLNYLEKNIGLKDILYIYYLYLPKAFSDGVALSFLFAISNLIGNLSMRNEIIGLFSCGVPLTRILKPIILISIFISVVLFFFDNYLVIDTIARRDVLIKNSIGDSRSGDKTIIIRDFAREIYNIKSYDIDENTFANLMIIIKDNKDEFQTRYDINKAEWKDNKWRLYGIREFVKVGKKIKENAYDVLDGTGIIKLAPDYIRTVMLSSKALNFTKLINWISFLKAERLNYSDAFFDLLNRIFFSFRLILLSFTVGFIALALKKNIFILSLLNSIAFAVVYVISIVIFNFLADLGYLHIYIASSFTTIFFLIINFFVYRIVRK | failed
2 | MNHTADNCIFCKIIDGQILCSKVYEDEHVLAFLDISQVTKGHTLVIPKVHKQDIFALTPEIASHIFSVVPKIANAIKAEFNPVGFNLLNNNGEKAGQTVFHFHLHLIPRYGENDGFGAVWKSHQNEYTMENLQNIASTIANSVK | not failed
3 | MSLSSKLRLQLDAHASIHENVRRLLQFTTSIMEANEEGIRKDIDSEFLHDFRVAIRRSRSILRLLNGVFDPEKTAWMLAGLRELGKRTNDLRDSDVYLLRREEYTSLLPPSLRPALDPFFSDLEADKRLHHRQFCRYLTGREYSGFMTSLKEFIAEGELPDPETAPLAAEPTGDVAAKTIRKALKKVLVHGRRTGSETSDAELHELRIDCKKLRYLLEFFASLFPPKATAQVLRQMKTLQDNLGTFVDLTVQMEFLQSRLETIPADRGGISEAAAIGGLLTTLYRKREKVREHFHEIFSGFDSNETGELFDELLTGLAEGHHHHHH | not failed
4 | MFSIQQPLLVFSDLDGTLLDSHSYDWQPAAPWLTRLREANVPVILCSSKTSAEMLYLQKTLGLQGLPLIAENGAVIQLAEQWQEIDGFPRIISGISHGEISLVLNTLREKEHFKFTTFDDVDDATIAEWTGLSRSQAALTQLHEASVTLIWRDSDERMAQFTARLNELGLQFMQGARFWHVLDASAGKDQAANWIIATYQQLSGKRPTTLGLGDGPNDAPLLEVMDYAVIVKGLNREGVHLHDEDPARVWRTQREGPEGWREGLDHFFSAR | not failed
5 | MKLIAIDLDGTLLNSKHQVSLENENALRQAQRDGIEVVVSTGRAHFDVMSIFEPLGIKTWVISANGAVIHDPEGRLYHHETIDKKRAYDILSWLESENYYYEVFTGSAIYTPQNGRELLDVELDRFRSANPEADLSVLKQAAEVQYSQSGFAYINSFQELFEADEPIDFYNILGFSFFKEKLEAGWKRYEHAEDLTLVSSAEHNFELSSRKASKGQALKRLAKQLNIPLEETAAVGDSLNDKSMLEAAGKGVAMGNAREDIKSIADAVTLTNDEHGVAHMMKHLL | not failed
6 | MSLDTGVTSVMFVERSLNEIRFWSRIMKEHSFFLRLGFRCEDTQLIEEANQFYRLFEHIEQIAHSYTNETDPEQIKRFNAEVQQAATNIWGFKRKILGLILTCKLPGQNNFPLLVDHTSREADYFRKRLIQLNEGKLDALPDAIIKENVFFLRIMADHAKFIGHLLDPSERKLVDTARNFSNDFDELMYQAIDLESMKPQSQTAPLLDQFLDQNRVSVASLRDFKKTARDLIEQCKIKSIIHPLLADHVFREADRFLEIIDMYDVHLTNIQSQPREGHHHHHH | not failed
7 | LEKAGDSVEITNEEAVIQYVNPAFENITLYNAREAMNKTVASLLRSPVEDAQLFEEINQTLKSGNTWKGQIRSRKKDGSYWVAQTIIVPVMDDELGRITQHIAIKQDIT | failed
8 | MFLSVVTVAFRNYEGVVKTWRSLRNLARDPGLSFEWIVVDGGSEDGTREFLRKRHGEFNLRFISEKDRGIYDAMNKGIALAQGRYTLFLNSGDAFHDDAALFVRQLARQKGEAMYIGDALLDFGGGHKIRRKAKPGYYIYHSLPASHQAIFFPTAALKKYPYDLQYHVSSDYALAARLYKAGYPFRRINGLVSEFSMGGVSTSNNLELCQDAKNVQRKILRVPGFWAQLSYLLRLKTTGKTKARYNKVLEHHHHHH | not failed
9 | MMKEMTVQQMTEKVLNKESLFILDVRNESDFRDWKIEGENFAYLNVPYFELVHGVDSIVDRLPKDQDIVVVCAKGGSAAFVAEQLAEAGFDNVYTLAGGMQAWSEHLHQAKVYEDDQLKIYQFIRVGKGCLSYMVLSGDEALVVDPLRFIDVYEQVAQQEGVTITHIVDSHLHADHLSGGKALAERTGAAYYLMKSEGAVFDFEPLEQHETIDFENVHLEVLAVKTPGHTPGSVSFFVNGKWLFSGDTIFVGGLGRPDLGGKVAEWAEDLYHTVYEKVAAMADDVIVLPAHYANLDEEINAEGYVGDTLGRIRARNEMMQNKAKDEFIDLVIQGAKTETPPNFEDIVAINRGLKTVDIETQRELEIGPLEHHHHHH | not failed
10 | MTIKRIFCDMDGTLLNSEGQVSKSNATLIREAAIPVTLVSARAPMEMKDAVDALQLGGVQVAFNGGLIYRIGDNNQVLPIHTQIIKKSTVKQLLRGIRFHFPQVSLSYYDLNNWYCDKIDEGIRYEHSLTQQCPTFIHNEDQFLEGHTNTFKIMMITFDEANMLELEKYLQSLELPEITIQRSGKAYLEITHLLAKKSKGIAYILQKEQLAREETAAFGDGHNDLPMLEMVGYPIVMDNAFDDIKAIAYQLTKSNDEDGVGYGIQKFLK | failed
11 | MSLHVTADAPGAAQGGYSVVTFRVPTESETAATTAMTVTLPNVRSARTEPMPGWTARVDRNDKSEAVSVTWTADPGNPGVQPGQFQRFVVSIGPLPSAETVSFPAEQTYSDGRVVAWNQPPAADGSEPEHPAPTLTLATAPGDTEGHHHHHH | not failed
12 | MSEHFLQQKYNSISENPIYLFWFLQFCFWSFVSLISLVSLTLWYVQIDVAHLNHTFLQSFVGVVFSLPLYWAFMRCWNTSIFIRVFVSITSVLLISFIWTVIRVELYIRLTGTDEIWTQFGGWYFSSIFIYFCWTGFFHGIRYYQLLQFEHEIMLKKEAEAKTEQLKRLSAQTVARDAKIKMLRYQLNPHFLCNTLNAINSLIECELPEKAQLMTVQLSKFLRYSLDNDPDTKIALEFELKALELYLEIEKTRFGERLQLDFQISEAAKAAFIPSLLLQPLIENSMKHVIAQNEEGGVISLSADVIDNMLVLELSDTGSAKRVDINKIKSKTGRGVGLRNIDERLKALYTDNYVYNLNVRPSGGLKTTIKLPLDSQGEPDIVNQAYNSMKVC | failed
13 | MYADEQFKQVFQCIRCAACLNVCPAFQLVGGHVYGHIYTGGIGTILTAFLNSEKDAENPQNLCLQCGKCTEVCAGKLDIPGMILEIRNRIGDQKGLPMTPLEHHHHHH | failed
14 | MNEQKNTAENTVNKQKDLETAGKTREKEDPKQLLLTASETDNYEDKLRIYDKALGLDPLYFDAWLQKGFVLDRLGRSNEALDCYNKALEIVPDHLGIKCLKGFAYSNLKDYEKAIECYDEVLKVNSEDVFSLFQKGSVLENLGRYGEAMEAYDRALEIDPADILIREKKMRLLGLIYKKGTLVDSPDSDFN | failed
15 | MAKAMELWVGEMKKMSEKINTRNPLMQRKNSTSVVSKQQQGSEEERGLINQKIREKNEAVTMSELTVCLLMDRFVPW | failed
16 | MINDIILLLFVKIKRRLMMDKLFKLKENGTDVRTEVLAGLTTFFAMSYILFVNPQILSQTGMPAQGVFLATIIGAVAGTLMMAFYANLPYAQAPGMGLNAFFTFTVVFGLGYSWQEALAMVFICGIISLIITLTNVRKMIIESIPNALRSAISAGIGVFLAYVGIKNAGLLKFTIDPGNYTVVGEGADKAQATIAANSSAVPGLVSFNNPAVLVALAGLAITIFFVIKGIKGGIILSILTTTVLAIAVGLVDLSSIDFANNHVGAAFEDLKTIFGAALGSEGLGALVSDTARLPETLMAILAFSLTDIFDTIGTLIGTGEKVGIVATNGENHQSAKLDKALYSDLIGTTVGAIAGTSNVTTYVESAAGIGAGGRTGLTALVVAICFAISSFFSPLLAIVPTAATAPILIIVGIMMLGSLKNIHWDDMSEAVPAFFTSIFMGFSYSITQGIAVGFLTYTLTKLVKGQVKDVHVMIWILDALFILNYISMAL | failed
17 | MGFLVPSEITVSEFLLDFLNKYSENISLATYNNYVSICKNYINPSIGKYKIQDLHPVHIQNYIDKLSYKLNPQSIKIHINILKLAIKRAYRLKLIKENVMDSIKAPLEHHHHHH | failed
18 | MKSVQEKRNNTRAFKTVAKSWFATKTTWSEDYQRSVWTRLETYLFPDIGNKDIAELDTGDLLVPIKKIEKLGYLEIAMRVKQYATAIMRYAVQQKMIRFNPAYDLEGAVQKLEHHHHHH | not failed
19 | MQLKSRVFIVTGASSGLGAAVTRAGSGGRDSARAGPEAASGGRACRSSARRCASEMPTRMRPTPPPLAFAKQEFGHVHGLVNCAGTAPGEDSRQERPARTGQFRPHGRRQPDRHSTYGLPPRSCRRESRTPTASGVIVNTASIAAFDGQIGQAAYAAEGRRRRPDASGRARARAFRNSRRPLRPASSIRRWPACLRMFRMRAASVPFPPRLGRAEEYAALVKHIREYDAQWRGHPPRRGFAHGAPV | not failed
20 | MKLCFNEATTLENSNLKLDLELCEKHGYDYIEIRTMDKLPEYLKDHSLDDLAEYFQTHHIKPLALNALVFFNNRDEKGHNEIITEFKGMMETCKTLGVKYVVAVPLVTEQKIVKEEIKKSSVDVLTELSDIAEPYGVKIALEFVGHPQCTVNTFEQAYEIVNTVNRDNVGLVLDSFHFHAMGSNIESLKQADGKKIFIYHIDDTEDFPIGFLTDEDRVWPGQGAIDLDAHLSALKEIGFSDVVSVELFRPEYYKLTAEEAIQTAKKTTVDVVSKYFSM | not failed
21 | MPVVDIDPDELRRLTGHRSKDDDELRQDLFGLGIEYEGETEDGDFKLEFEADRLDRLSVEGIARSLRYHAGDDRGVDIPDTNAPEWAIDVTDVPADRPYVTGAVIRGVDLDADALDSLIQLQEKLHATMGRKRAKGAIGIHDLAMLKGDTVDGDGTAARSLTYTGIDPDGDTFVPLDDDAERTPADVLTEHPTGETYADLLADHDTYPAIYDDIGLFSFPPVINGRRTEVTTDSRELFVELTGTDQWTIDRMCAIICYALDARGATIEDVTVDYPDRELHRPDFAVRTKHVSHDRIETLLGVEFTTEAVVDLAERAGLDATPTDDGYDVEIPPYRVDVRHPVDVVDDLGRAYDFNDLTPRYPDVNTIGGRTESSRLERSVRQALVGLGFEDLLNFNMTSEAENFDRMRLTPDHDAVGAAQPATIAEPYSQDFTILRTWALPSLAMVLETNTHHAYPQDLAEVGFAAHADGDTQTGVAERRTVAAVLARNDASYEDAKARLQALCDEFAVALETPPTTHPSFIDGRAATIEIDGQPAGVIGELHPGVIVEHDVEVPVAGFEFELDALR | failed
22 | MLDFLAANPLIALVVILAVGLAIGQIRVFGLSLGAAAVLFVALVVSTANTDIVIPMIVYQLGLAMFVYVIGLSAGPAFFSEFAKKGWKLTIFMLLLLATLIGLAWVLIKSLGLDAAIGTGMFTGALTSTPGMAAVVELIEGIDPSLASEPVIGYSLAYPGAVLGSIVVAAVGAKLLKVNHREDARKEGMITAPLVWKGVQLKPGITGRVGDLPRLAGESIIATRIVDDPHTHRLADPDLPITEGMELLINGTEEAVDRAIKALGEERETKIEDTELIYTRLTVSSPEVAGRTVAELDTVAHGFMIARIRQGDSEVVPKPDTVINYSDRIRVVVAPGRVAEVRRFLGDSEKSLADVNLLPLAIGLSLGLLLGAIPIPLPGGTTMSLGFGGGPIIAGLILGALKHTGPLTWQMPFHANRTISTLGLALFLAGVGTSAGAGFRAALTDSSSLIYMAGGLVITLASALLCAVIGMWVLRLRWDEAMGVAAGTTTNPAIISYLNGQTGTDLANRGYATVYPTAMIGKILGAQILFLLL | failed
